Among the data in PMC11039992 are response (spectral count) values, retold here.

Sequences and labels used below:
B1: MAC-RBM41-WT [human] / DEAH-box RNA helicase DHX8 [human (endogenous in Flp-In T-REx 293)] (parent)
chain 1: MKRVNSCVKSDEHVLEELETEGERQLKSLLQHQLDTSVSIEECMSKKESFAPGTMYKPFGKEAAGTMTLSQFQTLHEKDQETASLRELGLNETEILIWKSHVSGEKKTKLRATPEAIQNRLQDIEERISERQRILCLPQRFAKSKQLTRREMEIEKSLFQGADRHSFLKALYYQDEPQKKNKGDPMNNLESFYQEMIMKKRLEEFQLMRGEPFASHSLVSATSVGDSGTAESPSLLQDKGKQAAQGKGPSLHVANVIDFSPEQCWTGPKKLTQPIEFVPEDEIQRNRLSEEEIRKIPMFSSYNPGEPNKVLYLKNLSPRVTERDLVSLFARFQEKKGPPIQFRMMTGRMRGQAFITFPNKEIAWQALHLVNGYKLHGKILVIEFGKNKKQRSNLQATSLISCATGSTTEISGS
chain 2: MAVAVAMAGALIGSEPGPAEELAKLEYLSLVSKVCTELDNHLGINDKDLAEFVISLAEKNTTFDTFKASLVKNGAEFTDSLISNLLRLIQTMRPPAKPSTSKDPVVKPKTEKEKLKELFPVLCQPDNPSVRTMLDEDDVKVAVDVLKELEALMPSAAGQEKQRDAEHRDRTKKKKRSRSRDRNRDRDRDRERNRDRDHKRRHRSRSRSRSRTRERNKVKSRYRSRSRSQSPPKDRKDRDKYGERNLDRWRDKHVDRPPPEEPTIGDIYNGKVTSIMQFGCFVQLEGLRKRWEGLVHISELRREGRVANVADVVSKGQRVKVKVLSFTGTKTSLSMKDVDQETGEDLNPNRRRNLVGETNEETSMRNPDRPTHLSLVSAPEVEDDSLERKRLTRISDPEKWEIKQMIAANVLSKEEFPDFDEETGILPKVDDEEDEDLEIELVEEEPPFLRGHTKQSMDMSPIKIVKNPDGSLSQAAMMQSALAKERRELKQAQREAEMDSIPMGLNKHWVDPLPDAEGRQIAANMRGIGMMPNDIPEWKKHAFGGNKASYGKKTQMSILEQRESLPIYKLKEQLVQAVHDNQILIVIGETGSGKTTQITQYLAEAGYTSRGKIGCTQPRRVAAMSVAKRVSEEFGCCLGQEVGYTIRFEDCTSPETVIKYMTDGMLLRECLIDPDLTQYAIIMLDEAHERTIHTDVLFGLLKKTVQKRQDMKLIVTSATLDAVKFSQYFYEAPIFTIPGRTYPVEILYTKEPETDYLDASLITVMQIHLTEPPGDILVFLTGQEEIDTACEILYERMKSLGPDVPELIILPVYSALPSEMQTRIFDPAPPGSRKVVIATNIAETSLTIDGIYYVVDPGFVKQKVYNSKTGIDQLVVTPISQAQAKQRAGRAGRTGPGKCYRLYTERAYRDEMLTTNVPEIQRTNLASTVLSLKAMGINDLLSFDFMDAPPMETLITAMEQLYTLGALDDEGLLTRLGRRMAEFPLEPMLCKMLIMSVHLGCSEEMLTIVSMLSVQNVFYRPKDKQALADQKKAKFHQTEGDHLTLLAVYNSWKNNKFSNPWCYENFIQARSLRRAQDIRKQMLGIMDRHKLDVVSCGKSTVRVQKAICSGFFRNAAKKDPQEGYRTLIDQQVVYIHPSSALFNRQPEWVVYHELVLTTKEYMREVTTIDPRWLVEFAPAFFKVSDPTKLSKQKKQQRLEPLYNRYEEPNAWRISRAFRRR

This assay covers variants of B1. Put plainly: BioID proximity labeling (mass spectrometry spectral counts). The following applies: with DEAH-box RNA helicase DHX8 [human (endogenous in Flp-In T-REx 293)]; MAC-tagged protein expression induced with tetracycline in the presence of biotin for 24 h; three independent replicates; parent: 23; read off a plot.
Consider chain 1 Q352A, for which the response (spectral count) was 23. For the variant chain 1 Y312A F354A, the response (spectral count) came to 23. The figure for chain 1 F354A is 19. In the case of chain 1 Y312A, the response (spectral count) came to 19.
